Patent US20230331848A1 (BIOSION, published 2023)

Tests used:
[1] = target: T1, cynomolgus PD-1-his protein (Cat#:PD1-05223, Acro biosystems Inc.) (cynomolgus, UniProt B0LAJ3 25-170); experiment: SPR (Biacore T200), antibody captured, PD-1-his in flow, 1:1 fit
T1 construct: Bought protein used in Biacore and indirect ELISA; also called monkey PD-1; Cyno PD-1
Text: (§1) The purified anti-PD-1 mouse monoclonal antibodies (mAbs) generated in Example 1 were characterized for binding affinities and binding kinetics by Biacore T200 system (GE healthcare, Pittsburgh, Pa., USA).
(§2) Briefly, Goat-Anti-Mouse IgG (Cat#: BR100838, GE healthcare, Mouse Antibody Capture Kit) was covalently linked to a CMS chip (carboxy methyl dextran coated chip, Cat#: BR100530, GE healthcare) via primary amines using a standard amine coupling kit (GE healthcare, Pittsburgh, Pa., USA) provided by Biacore. Un-reacted moieties on the biosensor surface were blocked with ethanolamine. A Protein G chip (Cat#:29-1793-15, GE healthcare) was used for the positive controls affinity determination. The anti-PD-1 antibodies of the disclosure and the two positive controls at the concentration of 2 μg/ml were respectively flowed onto the chip at a flow rate of 10 μl/min. Then, serially diluted recombinant human PD-1-his protein (Cat#:10377-H08H, Sino biological Inc.), cynomolgus PD-1-his protein (Cat#:PD1-05223, Acro biosystems Inc.) and recombinant mouse PD-1-his protein (Cat#:50124-M08H, Sino Biological Inc), 2-fold dilution in HBS-EP⁺ buffer (provided by Biacore) starting at 200 nM, were respecitvely flowed onto the chip at a flow rate of 30 μl/min. The antigen-antibody association kinetics was followed for 2 minutes and the dissociation kinetics was followed for 10 minutes. The association and dissociation curves were fit to a 1:1 Langmuir binding model using Biacore evaluation software.

[2] = target: T2, recombinant human PD-1-his protein (Cat#:10377-H08H, Sino biological Inc.) (human, UniProt Q15116 25-167); experiment: as above
T2 construct: Bought protein used as analyte in the Biacore tests; not shown: his tag
Text: as §1, §2

[3] = target: T3, in house made human PD-1-Fc protein (human, biotin-labeled (sites not given)); experiment: competitive ELISA: antibody pre-mixed with biotin-labeled human PD-1-Fc, added to coated Pembrolizumab (competitor); unit from the axis 'Con of mAb, nM.'
T3 construct: also called biotin-labeled human PD-1-Fc
Description: ELISA plates were washed once with wash buffer (PBST, PBS+0.05% Tween-20) and then blocked with 200 μl/well blocking buffer (5% w/v non-fatty milk in PBST) for 2 hours at 37° C. […] After incubation at 37° C. for 40 minutes, plates were washed using wash buffer, added and incubated with 100 μl/well Peroxidase Streptavidin for 40 minutes at 37° C. Plates were washed again using wash buffer. Finally, TMB was added and the reaction was stopped using 1M H₂SO₄. The absorbance was read on a microplate reader using dual wavelength mode with 450 nm for TMB and 630 nm as the reference wavelength, and the OD (450-630) values were plotted against antibody concentrations. Data was analyzed using Graphpad Prism software and IC₅₀ values were reported.

[4] = target: T3, in house made human PD-1-Fc protein; experiment: cell-based blocking FACS: antibody pre-mixed with biotin-labeled human PD-1-Fc, added to GS-C2/PD-L1 cells expressing human PD-L1 (blocked ligand); unit from the axis 'Con of mAb, nM.'
Description: GS-C2/PDL1 cells were harvested from cell culture flasks at the log phase, washed twice and re-suspended in PBS containing 2% v/v Fetal Bovine Serum (FACS buffer). GS-C2/PD-L1 cells, 0.6×10⁵ cells per welt, were incubated in 96 well-plates with 100 the antibody/PD1-Fc mixture for 40 minutes at 4° C. Cells were washed twice with FACS buffer, added with 100 R-Phycoerythrin Streptavidin (1:500 dilution in FACS buffer, Cat#:016-110-084, Jackson Immunoresearch), and incubated for 40 minutes at 4° C. in dark. Cells were washed twice and re-suspended in FACS buffer. Fluorescence was measured using a Becton Dickinson FACS Canto II-HTS equipment. Data was analyzed using Graphpad Prism software and IC₅₀ values were reported.

[5] = target: T4, human PD-1 expressed on GS-J2/PD-1 cells (Genscript) (human, UniProt Q15116 25-288); experiment: cell-based binding FACS on GS-J2/PD-1 cells expressing human PD-1 (MFI); unit from the axis 'Con of mAb, nM.'
T4 construct: whole, on cells; also called cell-surface human PD-1
Description: The mouse anti-PD-1 antibodies of the disclosure were also tested for their binding activities to human PD-1s expressed on cell surface by flow cytometry (FACS), using GS-J2/PD-1 cell line (Genscript) expressing cell-surface human PD-1s.
In specific, the 293F-mouse PD-1 cells and GS-J2/PD-1 cells were respectively harvested from cell culture flasks, washed twice and re-suspended in PBS containing 2% v/v Fetal Bovine Serum (FACS buffer). Then, 2×10⁵ cells per well were incubated in 96 well-plates with 100 μl of the anti-PD1 antibodies or controls at various concentrations for 40 minutes on ice. […] Following an incubation of 40 minutes at 4° C. in dark, cells were washed three times and re-suspended in FACS buffer. Fluorescence was measured using a Becton Dickinson FACS Canto II-HTS equipment and plotted against antibody concentrations. Data was analyzed using GraphPad Prism software and EC₅₀ values were reported.

[6] = target: T3, in house made human PD-1-Fc protein; experiment: capture ELISA: antibody captured on anti-mouse IgG F(ab')2 coated plate, biotin-labeled human PD-1-Fc detected with streptavidin-HRP; unit from the axis 'Con of mAb, nM.'
Description: Briefly, 96-well micro plates were coated with 100 μl 2 μg/ml AffiniPure Goat Anti-Mouse IgG F(ab′)₂ fragment specific (Cat#:115-005-072, Jackson lmmunoResearch) or Goat-anti-human IgG (Cat#:109-005-097, Jackson ImmunoResearch, for the positive control and negative control) in PBS overnight at 4° C. Plates were washed once with wash buffer (PBST, PBS+0.05% Tween-20) and then blocked with 200 μl/well blocking buffer (5% w/v non-fatty milk in PBST) for 2 hours at 37° C. […] After a final wash, plates were incubated with 100 μl/well TMB (Cat#:TMB-S-002, Innoreagents) at room temperature.
The reaction was stopped 3-10 minutes later with 50 μl/well 1M H₂SO₄, and the absorbance was read on a microplate reader using dual wavelength mode with 450 nm for TMB and 630 nm as the reference wavelength. The OD (450-630) values were plotted against antibody concentrations. Data was analyzed using GraphPad Prism software and EC₅₀ values were reported.

Row | Binder | Kd [1] | koff [1] | kon [1] | Kd [2] | koff [2] | kon [2] | IC50 [3] | IC50 [4] | EC50 [5] | EC50 [6]
1 | mouse anti-PD-1 monoclonal antibody E1A9C8A7 (antibody, V domains shown, Hybridoma-derived mouse mAb purified on Protein A; also called Mouse E1A9C8A7) VH: QVQLQQSGAEVVRPGVSVRISCKGSGYTFSDYVMHWMKQSHGESLEWIGVISTYHIPAVYNQKFKGKATMTVDKSSSTVYLELARLTSEDSAIYYCAREVYGDSYYFDVWGAGTTVTVSS VL: DVLMTQIPLSLPVSLGDQVSISCRSSQSIVHSNGNTYLEWYLQKPGQSPKLLIYKVSNRFSGVPDRFSGSGSGTDFTLKISRVEAEDLGVYYCFQGSHVPYTFGGGTKLEIK | 1.13 nM | 0.000119 s⁻¹ | 106000 M⁻¹ s⁻¹ | 1.1 nM | 0.00022 s⁻¹ | 199000 M⁻¹ s⁻¹ | 0.0982 nM | 0.782 nM | 0.37 nM | 0.0554 nM
2 | mouse anti-PD-1 monoclonal antibody E2G4E10B7 (antibody, V domains shown, Hybridoma-derived mouse mAb; also called Mouse E2G4E10B7) VH: QVQLQQSGAELVRPGVSVKISCKGSGYTFTDYVMHWVRQSHAKSLEWIGVISTHFGDGVYNQKFKGKATMTVDKSSSTAYMELARLTSEDSAIYYCAREVYGDSWYFDVWGAGTTVTVSS VL: DVLMTQTPLSLPVSLGDQASISCRSSQSLVHSDGNTYLEWYLQKPGQSPKLLIYKVSNRFSGVPDRFSGSGSGTDFTLKISRLEAEDLGVYYCFQGSHVPYTFGGGTKLEIK | 1.16 nM | 0.000161 s⁻¹ | 138000 M⁻¹ s⁻¹ | 0.906 nM | 0.00022 s⁻¹ | 243000 M⁻¹ s⁻¹ | 0.162 nM | 0.484 nM | 0.483 nM | 0.0647 nM
3 | mouse anti-PD-1 monoclonal antibody E1G5D1H1 (antibody, V domains shown, Hybridoma-derived mouse mAb; also called EIG5D1H1; E1G5DIH1) VH: EVQLVESGGGLVKPGGSLKLSCAASGFTFSDFYMYWVRQTPEKRLEWVATISNSGTQTYYLDSVKGRFTISRDNAKNNLYLQMSSLKSEDTAMYYCARDYYRYDSWYFDVWGAGTTVTVSS VL: DIVLTQSPASLAVSQGQRATISCRASESVDFYGTSLMQWFQLKPGQPPKLLIYAASNVESGVPARFSGSGSGTNFSLNIHPVEEDDIAMYFCQQSRKVPWTFGGGTNLEIK | 0.125 nM | 4.32e-05 s⁻¹ | 345000 M⁻¹ s⁻¹ | 0.236 nM | 8.56e-05 s⁻¹ | 363000 M⁻¹ s⁻¹ | 0.0629 nM | 0.496 nM | 0.23 nM | 0.0379 nM
